From the MegaScale stability set (Tsuboyama et al. 2023) come the findings set out here.

B1: 1ZHC (parent)
chain: HEFRDEISVLKANNPHFDKIFEKHNQLDDDIKTAEQQNASDAEVSHMKKQKLKLKDEIHSMIIEYREK

In the series the parent is B1. As to the kind of experiment: folding stability dG (cDNA display proteolysis); higher = more stable. The note with it: PBS, room temperature.
Take HYFRDEISVLKANNPHFDKIFEKHNQLDDDIKTAEQQNASDAEVSHMKKQKLKLKDEIHSMIIEYREK [E2Y]: the “folding stability dG” value came out at 1 kcal/mol.

Turning to HVFRDEISVLKANNPHFDKIFEKHNQLDDDIKTAEQQNASDAEVSHMKKQKLKLKDEIHSMIIEYREK [E2V], the “folding stability dG” value is 1.2 kcal/mol.

As for HEFRIEISVLKANNPHFDKIFEKHNQLDDDIKTAEQQNASDAEVSHMKKQKLKLKDEIHSMIIEYREK [D5I], the “folding stability dG” value came to 1.04 kcal/mol.

In the case of HEFRQEISVLKANNPHFDKIFEKHNQLDDDIKTAEQQNASDAEVSHMKKQKLKLKDEIHSMIIEYREK [D5Q], the “folding stability dG” value came to 0.415 kcal/mol.

Turning to HEFRMEISVLKANNPHFDKIFEKHNQLDDDIKTAEQQNASDAEVSHMKKQKLKLKDEIHSMIIEYREK [D5M], the “folding stability dG” value came out at 0.985 kcal/mol.

Consider HEFRPEISVLKANNPHFDKIFEKHNQLDDDIKTAEQQNASDAEVSHMKKQKLKLKDEIHSMIIEYREK [D5P], for which the “folding stability dG” value is -0.163 kcal/mol.

As to HEFRLEISVLKANNPHFDKIFEKHNQLDDDIKTAEQQNASDAEVSHMKKQKLKLKDEIHSMIIEYREK [D5L], the “folding stability dG” value is 0.917 kcal/mol.

For HEFRNEISVLKANNPHFDKIFEKHNQLDDDIKTAEQQNASDAEVSHMKKQKLKLKDEIHSMIIEYREK [D5N], the “folding stability dG” value came out at 0.625 kcal/mol.

Consider HEFRHEISVLKANNPHFDKIFEKHNQLDDDIKTAEQQNASDAEVSHMKKQKLKLKDEIHSMIIEYREK [D5H], for which the “folding stability dG” value was 1.23 kcal/mol.

On to HEFRSEISVLKANNPHFDKIFEKHNQLDDDIKTAEQQNASDAEVSHMKKQKLKLKDEIHSMIIEYREK [D5S], for which the “folding stability dG” value is 0.508 kcal/mol.

Turning to HEFRFEISVLKANNPHFDKIFEKHNQLDDDIKTAEQQNASDAEVSHMKKQKLKLKDEIHSMIIEYREK [D5F], the “folding stability dG” value was determined as 1.36 kcal/mol.

In the case of HEFRTEISVLKANNPHFDKIFEKHNQLDDDIKTAEQQNASDAEVSHMKKQKLKLKDEIHSMIIEYREK [D5T], the “folding stability dG” value is 0.722 kcal/mol.

For HEFRGEISVLKANNPHFDKIFEKHNQLDDDIKTAEQQNASDAEVSHMKKQKLKLKDEIHSMIIEYREK [D5G], the “folding stability dG” value was found to be 0.455 kcal/mol.

For HEFRYEISVLKANNPHFDKIFEKHNQLDDDIKTAEQQNASDAEVSHMKKQKLKLKDEIHSMIIEYREK [D5Y], the “folding stability dG” value is 1.53 kcal/mol.

Regarding HEFRVEISVLKANNPHFDKIFEKHNQLDDDIKTAEQQNASDAEVSHMKKQKLKLKDEIHSMIIEYREK [D5V], the “folding stability dG” value was determined as 0.719 kcal/mol.

On to HEFRREISVLKANNPHFDKIFEKHNQLDDDIKTAEQQNASDAEVSHMKKQKLKLKDEIHSMIIEYREK [D5R], for which the “folding stability dG” value was determined as 0.858 kcal/mol.

For HEFRKEISVLKANNPHFDKIFEKHNQLDDDIKTAEQQNASDAEVSHMKKQKLKLKDEIHSMIIEYREK [D5K], the “folding stability dG” value was found to be 0.902 kcal/mol.

With HEFRWEISVLKANNPHFDKIFEKHNQLDDDIKTAEQQNASDAEVSHMKKQKLKLKDEIHSMIIEYREK [D5W], the “folding stability dG” value was found to be 1.47 kcal/mol.

For the variant HEFRAEISVLKANNPHFDKIFEKHNQLDDDIKTAEQQNASDAEVSHMKKQKLKLKDEIHSMIIEYREK [D5A], the “folding stability dG” value was determined as 0.255 kcal/mol.

As for HEFREEISVLKANNPHFDKIFEKHNQLDDDIKTAEQQNASDAEVSHMKKQKLKLKDEIHSMIIEYREK [D5E], the “folding stability dG” value amounted to 0.721 kcal/mol.

Consider HERRDEISVLKANNPHFDKIFEKHNQLDDDIKTAEQQNASDAEVSHMKKQKLKLKDEIHSMIIEYREK [F3R], for which the “folding stability dG” value was -0.674 kcal/mol.

On to HEWRDEISVLKANNPHFDKIFEKHNQLDDDIKTAEQQNASDAEVSHMKKQKLKLKDEIHSMIIEYREK [F3W], for which the “folding stability dG” value was determined as 1.15 kcal/mol.

For the variant HEKRDEISVLKANNPHFDKIFEKHNQLDDDIKTAEQQNASDAEVSHMKKQKLKLKDEIHSMIIEYREK [F3K], the “folding stability dG” value stood at 0.26 kcal/mol.

Regarding HETRDEISVLKANNPHFDKIFEKHNQLDDDIKTAEQQNASDAEVSHMKKQKLKLKDEIHSMIIEYREK [F3T], the “folding stability dG” value came to 0.328 kcal/mol.

As to HEIRDEISVLKANNPHFDKIFEKHNQLDDDIKTAEQQNASDAEVSHMKKQKLKLKDEIHSMIIEYREK [F3I], the “folding stability dG” value was 0.418 kcal/mol.

For the variant HESRDEISVLKANNPHFDKIFEKHNQLDDDIKTAEQQNASDAEVSHMKKQKLKLKDEIHSMIIEYREK [F3S], the “folding stability dG” value was found to be 0.019 kcal/mol.

HEPRDEISVLKANNPHFDKIFEKHNQLDDDIKTAEQQNASDAEVSHMKKQKLKLKDEIHSMIIEYREK [F3P]: the “folding stability dG” value turned out to be 0.015 kcal/mol.

In the case of HEDRDEISVLKANNPHFDKIFEKHNQLDDDIKTAEQQNASDAEVSHMKKQKLKLKDEIHSMIIEYREK [F3D], the “folding stability dG” value was 0.364 kcal/mol.

Turning to HEVRDEISVLKANNPHFDKIFEKHNQLDDDIKTAEQQNASDAEVSHMKKQKLKLKDEIHSMIIEYREK [F3V], the “folding stability dG” value was 0.222 kcal/mol.

As to HEYRDEISVLKANNPHFDKIFEKHNQLDDDIKTAEQQNASDAEVSHMKKQKLKLKDEIHSMIIEYREK [F3Y], the “folding stability dG” value was found to be 1.05 kcal/mol.

Regarding HEGRDEISVLKANNPHFDKIFEKHNQLDDDIKTAEQQNASDAEVSHMKKQKLKLKDEIHSMIIEYREK [F3G], the “folding stability dG” value worked out at 0.249 kcal/mol.

Turning to HENRDEISVLKANNPHFDKIFEKHNQLDDDIKTAEQQNASDAEVSHMKKQKLKLKDEIHSMIIEYREK [F3N], the “folding stability dG” value amounted to 0.409 kcal/mol.

Turning to HEERDEISVLKANNPHFDKIFEKHNQLDDDIKTAEQQNASDAEVSHMKKQKLKLKDEIHSMIIEYREK [F3E], the “folding stability dG” value is 0.242 kcal/mol.

HELRDEISVLKANNPHFDKIFEKHNQLDDDIKTAEQQNASDAEVSHMKKQKLKLKDEIHSMIIEYREK [F3L]: the “folding stability dG” value was 1.04 kcal/mol.

For the variant HEARDEISVLKANNPHFDKIFEKHNQLDDDIKTAEQQNASDAEVSHMKKQKLKLKDEIHSMIIEYREK [F3A], the “folding stability dG” value was 0.526 kcal/mol.

As to HEQRDEISVLKANNPHFDKIFEKHNQLDDDIKTAEQQNASDAEVSHMKKQKLKLKDEIHSMIIEYREK [F3Q], the “folding stability dG” value worked out at 0.544 kcal/mol.

For the variant HEMRDEISVLKANNPHFDKIFEKHNQLDDDIKTAEQQNASDAEVSHMKKQKLKLKDEIHSMIIEYREK [F3M], the “folding stability dG” value was 0.267 kcal/mol.

In the case of HEHRDEISVLKANNPHFDKIFEKHNQLDDDIKTAEQQNASDAEVSHMKKQKLKLKDEIHSMIIEYREK [F3H], the “folding stability dG” value was determined as 0.635 kcal/mol.

For the variant HEFRDEASVLKANNPHFDKIFEKHNQLDDDIKTAEQQNASDAEVSHMKKQKLKLKDEIHSMIIEYREK [I7A], the “folding stability dG” value is -0.185 kcal/mol.

Consider HEFRDECSVLKANNPHFDKIFEKHNQLDDDIKTAEQQNASDAEVSHMKKQKLKLKDEIHSMIIEYREK [I7C], for which the “folding stability dG” value was 1.14 kcal/mol.
